One may read the Km as the concentration of substrate that gives half-maximal velocity. By kcat is commonly meant the number of substrate molecules converted per active site and unit of time at saturation. By kcat/Km is commonly meant the second-order rate constant that governs catalysis at low substrate concentration.

Assay in all cases: purified protein
What all share (type): biochemical, Homo sapiens

Substrate in series [1]: O=C(O)[C@@H]1CSCN1
The note with it: 1 mM NADP+, pH 7.5, Tris-HCl, L-T4C 0-25 mM.

Substrate in series [2]: NC(=O)c1ccc[n+]([C@@H]2O[C@H](COP(=O)(O)OP(=O)(O)OC[C@H]3O[C@@H](n4cnc5c(N)ncnc54)[C@H](O)[C@@H]3O)[C@@H](O)[C@H]2O)c1
The note with it: 60 mM L-T4C, pH 7.5, Tris-HCl, varied: cofactor.

Substrate in series [3]: NC(=O)c1ccc[n+]([C@@H]2O[C@H](COP(=O)(O)OP(=O)(O)OC[C@H]3O[C@@H](n4cnc5c(N)ncnc54)[C@H](OP(=O)(O)O)[C@@H]3O)[C@@H](O)[C@H]2O)c1
The note with it: 60 mM L-T4C, pH 7.5, Tris-HCl, varied: cofactor.

B1: PYCR2 (Homo sapiens) (protein)
chain: MSVGFIGAGQLAYALARGFTAAGILSAHKIIASSPEMNLPTVSALRKMGVNLTRSNKETVKHSDVLFLAVKPHIIPFILDEIGADVQARHIVVSCAAGVTISSVEKKLMAFQPAPKVIRCMTNTPVVVQEGATVYATGTHALVEDGQLLEQLMSSVGFCTEVEEDLIDAVTGLSGSGPAYAFMALDALADGGVKMGLPRRLAIQLGAQALLGAAKMLLDSEQHPCQLKDNVCSPGGATIHALHFLESGGFRSLLINAVEASCIRTRELQSMADQEKISPAALKKTLLDRVKLESPTVSTLTPSSPGKLLTRSLALGGKKD
For the protein B1, in series [1], the Michaelis-Menten constant (Km) is recorded as 6.8 ± 0.9 mM, the kcat was determined as 0.92 ± 0.04 s⁻¹ and the catalytic efficiency (kcat/Km) turned out to be 136 ± 19 M⁻¹ s⁻¹. In series [2], the Km is on record as 0.66 ± 0.11 mM, the kcat was found to be 0.36 ± 0.13 s⁻¹ and the kcat/Km is 551 ± 223 M⁻¹ s⁻¹. Besides, in series [3], the Km came to 0.53 ± 0.12 mM, the kcat was 0.46 ± 0.02 s⁻¹ and the kcat/Km came to 857 ± 224 M⁻¹ s⁻¹.

(Values after PMC8876999.)
